41 sequences from the supplement of paper PMC9732359 can be followed below.

± gives the uncertainty stated by the source.

The nature of the data set: protein stability index of a GFP-peptide fusion (yeast GPS) (PSI 1-4); higher = more stable; sorted into four equal gates, so the index is relative within each strain. The essentials:
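Plasmids in a pooled yeast library fused tiled 17-residue yeast protein peptides downstream of GFP and also expressed Cherry. Mid-log cultures grown without leucine were sorted into four equal gates by GFP/Cherry fluorescence ratio. Each gate's plasmids were PCR-amplified and Illumina-sequenced, and reads were matched to strains by barcodes. The protein stability index is derived by multiplying each gate's read frequency by its gate number and summing the results.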

Regarding KLNKVDKNELQQMIITR [SIR3], the protein stability index (doa10∆) was found to be 3.12 ± 0.074, the protein stability index (pdr5∆) was 3.22 ± 0.07, the protein stability index (san1∆) was determined as 3.28 ± 0.039 and the protein stability index (ubr1∆) was 3.23 ± 0.043.
Consider YQISAYQTRARQKARTD [RPR2], for which the protein stability index came to 2.19 ± 0.027 (doa10∆), 2.31 ± 0.026 (pdr5∆), 2.36 ± 0.031 (san1∆) and 2.407 ± 0.023 (ubr1∆).
In the case of TSLLDSLISVLEASLNS [YJL039C/NUP192], the protein stability index (doa10∆) amounted to 1.94 ± 0.083, the protein stability index (pdr5∆) is 1.77 ± 0.09, the protein stability index (san1∆) is 1.87 ± 0.19 and the protein stability index (ubr1∆) worked out at 1.58 ± 0.08.
As for NRKRIVTLRKSLYTNTS [RPL3], the protein stability index came out at 2.66 ± 0.069 (doa10∆), 2.27 ± 0.065 (pdr5∆), 1.66 ± 0.087 (san1∆) and 1.73 ± 0.076 (ubr1∆).
For the sequence MNECIADQDMEDEDMVD [ESC2], the protein stability index is, setting by setting: (doa10∆) 3.18 ± 0.072; (pdr5∆) 3.35 ± 0.11; (san1∆) 3.3 ± 0.048; (ubr1∆) 3.08 ± 0.058.
On to RGDSTETSSFGSMFSGD [RRI1], for which the protein stability index runs as follows: (doa10∆) 3.5 ± 0.087; (pdr5∆) 3.27 ± 0.16; (san1∆) 3.35 ± 0.053; (ubr1∆) 3.27 ± 0.15.
MYNGKDRAQNSYQPMYQ [SSN3]: the protein stability index came to 3.31 ± 0.21 (doa10∆), 2.48 ± 0.23 (pdr5∆) and 3.2 ± 0.063 (ubr1∆).
Take NRPDNKNAQYHLLVKQG [RPN7]: the protein stability index is 2.86 ± 0.056 (doa10∆), 2.58 ± 0.053 (pdr5∆), 2.79 ± 0.05 (san1∆) and 2.78 ± 0.036 (ubr1∆).
In the same order, the values of NLIGVITHQGANSESGH [UBP6] are 2.33 ± 0.12, 3 ± 0.091, 3.22 ± 0.069 and 3.07 ± 0.085.
Regarding LYPCYFDINRSHKEGRR [SEC65], the protein stability index reads like this: (doa10∆) 1.15 ± 0.17; (pdr5∆) 1.93 ± 0.16; (san1∆) 1.09 ± 0.24; (ubr1∆) 1.1 ± 0.08.
With AFSYEQAQLRIDDKTQN [DIS3], the protein stability index came out at 3.32 ± 0.21 (doa10∆), 2.81 ± 0.14 (pdr5∆), 2.87 ± 0.12 (san1∆) and 2.25 ± 0.24 (ubr1∆).
In the case of QINKAQILENYNALFQQ [YJL039C/NUP192], the protein stability index is, setting by setting: (doa10∆) 2.81 ± 0.068; (pdr5∆) 3.12 ± 0.058; (san1∆) 2.73 ± 0.065; (ubr1∆) 3.03 ± 0.047.
For DITTSIMDNFLERTAIE [RPN1], the protein stability index runs as follows: (doa10∆) 3.21 ± 0.12; (pdr5∆) 3.35 ± 0.17; (san1∆) 3.22 ± 0.086; (ubr1∆) 3.28 ± 0.12.
Turning to AHCILGIGGDHAKFSPV [RPC40], the protein stability index by setting is: (doa10∆) 2.59 ± 0.085; (pdr5∆) 2.82 ± 0.15; (san1∆) 2.41 ± 0.12; (ubr1∆) 2.85 ± 0.068.
Regarding NLATKGMVKLNEYPVAD [REC8], the protein stability index was 2.85 ± 0.071 (doa10∆), 1.52 ± 0.05 (pdr5∆), 1.46 ± 0.074 (san1∆) and 1.57 ± 0.058 (ubr1∆).
IRAHQTELTHHLLPRNE [QCR7]: the protein stability index was determined as 2.99 ± 0.1 (doa10∆), 3.2 ± 0.072 (pdr5∆), 3.02 ± 0.064 (san1∆) and 2.92 ± 0.065 (ubr1∆).
ELIQKYLGDGPRLCRQI [RPT2]: the protein stability index (san1∆) worked out at 2.76 ± 0.2.
In the case of GNKALEDEEEFSIFNYF [RPC34], the protein stability index is 3.21 ± 0.13 (doa10∆) and 3.37 ± 0.14 (pdr5∆).
IDEIDAIGTKRYDSNSG [RPT2] came in with a protein stability index (pdr5∆) of 2.26 ± 0.14, a protein stability index (san1∆) of 2.36 ± 0.087 and a protein stability index (ubr1∆) of 2.92 ± 0.19.
On to SAGDDGKVRLWKATYSN [YGL100W/SEH1], for which the protein stability index came out at 2.74 ± 0.061 (doa10∆), 2.89 ± 0.089 (pdr5∆), 2.74 ± 0.06 (san1∆) and 3 ± 0.058 (ubr1∆).
Turning to TRAKAKVEEMNNIIAAS [RPL36A], the protein stability index (pdr5∆) worked out at 3.18 ± 0.14.
On to HVVTREKGPQVCAKLFG [RPO21], for which the protein stability index stood at 3.24 ± 0.082 (doa10∆), 2.81 ± 0.079 (pdr5∆), 2.95 ± 0.097 (san1∆) and 3.08 ± 0.1 (ubr1∆).
Turning to DKKNKRLKFGHRLIATH [SNF2], the protein stability index reads like this: (doa10∆) 2.02 ± 0.077; (pdr5∆) 1.8 ± 0.057; (san1∆) 1.85 ± 0.091; (ubr1∆) 2 ± 0.056.
Turning to AGLTRSDRSLSEDLFAD [BRR2], the protein stability index by setting is: (doa10∆) 3.04 ± 0.26; (san1∆) 3.56 ± 0.2.
For GSVMSASVEIVFHDPDH [SMC3], the protein stability index came to 2.12 ± 0.091 (doa10∆), 2.53 ± 0.071 (pdr5∆), 2.4 ± 0.084 (san1∆) and 2.55 ± 0.061 (ubr1∆).
For the sequence LMMVEKVPDSTYDMVGG [RPT6], the protein stability index was 2.6 ± 0.081 (doa10∆), 2.98 ± 0.071 (pdr5∆), 2.84 ± 0.069 (san1∆) and 3.01 ± 0.068 (ubr1∆).
As to LPNQFPLKIHRTPYLTS [SWI1], the protein stability index was determined as 2.07 ± 0.042 (doa10∆), 1.72 ± 0.045 (pdr5∆), 1.65 ± 0.074 (san1∆) and 1.72 ± 0.038 (ubr1∆).
Take QSYGGRPYGVGLLIIGY [PRE5]: the protein stability index (doa10∆) came to 2.96 ± 0.078, the protein stability index (pdr5∆) came to 3.01 ± 0.067, the protein stability index (san1∆) is 2.83 ± 0.07 and the protein stability index (ubr1∆) is 2.56 ± 0.071.
The sequence PNPNNMKTVQSPMGAQP [GAL11] had a protein stability index (doa10∆) of 3.21 ± 0.13, a protein stability index (pdr5∆) of 2.96 ± 0.095, a protein stability index (san1∆) of 2.96 ± 0.12 and a protein stability index (ubr1∆) of 2.94 ± 0.075.
For the sequence EAVVDQDVQRTCILHGP [FAS1], the protein stability index by setting is: (doa10∆) 3.32 ± 0.11; (pdr5∆) 3.24 ± 0.087; (san1∆) 3.17 ± 0.078; (ubr1∆) 3.38 ± 0.051.
In the same order, the values of YGPPGTGKTLLAKAVAA [RPT4] are 2.17 ± 0.069, 2.23 ± 0.06, 1.98 ± 0.089 and 1.93 ± 0.05.
For the sequence MYQMITMGGNAELELVD [SMC4], the protein stability index came out at 2.81 ± 0.074 (doa10∆), 2.47 ± 0.1 (pdr5∆), 2.6 ± 0.08 (san1∆) and 2.54 ± 0.072 (ubr1∆).
In the case of LNESRSQHKKILEELDF [SMC3], the protein stability index is, setting by setting: (doa10∆) 3.38 ± 0.12; (pdr5∆) 3.26 ± 0.098; (san1∆) 3.01 ± 0.069; (ubr1∆) 3.06 ± 0.082.
In the same order, the values of EYAALASLADVMSIESL [FAS1] are 3.07 ± 0.069, 3.11 ± 0.068, 3.14 ± 0.069 and 3.07 ± 0.053.
Consider SYQKLLKNYVLNELHPT [PRP8], for which the protein stability index was determined as 1.62 ± 0.039 (doa10∆), 1.57 ± 0.034 (pdr5∆), 1.55 ± 0.057 (san1∆) and 1.75 ± 0.033 (ubr1∆).
TSSTHERKSKTYVITKN [RET1]: the protein stability index reads like this: (doa10∆) 2.44 ± 0.067; (pdr5∆) 2.66 ± 0.08; (san1∆) 2.3 ± 0.064; (ubr1∆) 2.84 ± 0.076.
Consider IAASYHYPEIEDLVDRI [RPP0], for which, under “pdr5∆”, the protein stability index was 1.89 ± 0.16.
For the sequence SRRWRQRKNIQSLELMI [BRR2], the protein stability index (doa10∆) was 1.39 ± 0.096, the protein stability index (pdr5∆) stood at 1.88 ± 0.073, the protein stability index (san1∆) is 2.15 ± 0.15 and the protein stability index (ubr1∆) came out at 1.29 ± 0.057.
As for GLSAREAVKQAAKIIYL [PRE10], the protein stability index by setting is: (doa10∆) 2.86 ± 0.096; (pdr5∆) 2.59 ± 0.063; (san1∆) 2.59 ± 0.1; (ubr1∆) 2.52 ± 0.053.
On to IYGVEWLIEGKLYVDAV [YDL116W/NUP84], for which the protein stability index (pdr5∆) came out at 1.2 ± 0.082.
Consider DLKIEKLVLNISVGESG [RPL11A], for which the protein stability index was 2.81 ± 0.12 (doa10∆), 2.66 ± 0.095 (pdr5∆), 2.52 ± 0.09 (san1∆) and 1.89 ± 0.09 (ubr1∆).
